Results as given in patent US6033903, “Method of expressing and secreting soluble extracellular domains of human gonadotropin hormone receptors” (Applied Research Systems, Ars Holding N.V., dated 2000).

Biological target: human follicle stimulating hormone (recombinant hFSH) (human, UniProt P01215, ^125 I label on the tracer form (which chain and residue is not stated); unlabelled in the cold competitor, the affinity resin and the cell assay)
Assay: 125I-hFSH radioligand binding, summary of Example 2

B1: soluble hFSHR-EC secreted from baculovirus-infected insect cells (gp67 signal peptide fusion, pAcGP67-hFSHR-EC) (receptor)
chain: ADQCHHRICHCSNRVFLCQESKVTEIPSDLPRNAIELRFVLTKLRVIQKGAFSGFGDLEKIEISQNDVLEVIEADVFSNLPKLHEIRIEKANNLLYINPEAFQNLPNLQYLLISNTGIKHLPDVHKIHSLQKVLLDIQDNINIHTIERNSFVGLSFESVILWLNKNGIQEIHNCAFNGTQLDELNLSDNNNLEELPNDVFHGASGPVILDISRTRIHSLPSYGLENLKKLRARSTYNLKKLPTLEKLVALMEASLTYPSHCCAFANWRRQISELHPICNKSILRQEVDYMTQTRGQRSSLAEDNESSYSRGFDMTYTEFDYDLCNEVVDVTCSPKPDAFNPCEDIMGYNILR
- binding result: binds
